Reference: the supplement of paper PMC10126150
± gives the standard deviation of the averaged measurements.

Test system: ATP
Assay: switch fluorescence ratio, 500 uM ATP over buffer (Cy3 cluster intensity, sum of 5 cycles each) (fold (ratio)); higher = stronger signal-on switching upon ATP binding; sequences stand for … in TCGTCGGCAGCGTCAGATGTGTATAAGAGACAGTTTTTTTTTTTTTTTTTTTTTTTTT…TC
Details: aptamer strand: ATP DNA aptamer (quencher-CACCTGGGGGAGTATTGCGGAGGAAGG + anchor), 100 nM annealed; ATP concentration: 500 uM
Summary of the method: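 Between each of five buffer/ATP cycles, the flow-cell was stripped with NaOH and re-annealed. Each cycle imaged Cy3-labelled switching-strand clusters, annealed to 100 nM quencher-labelled ATP aptamer on a modified Illumina MiSeq flow-cell, first in selection buffer and then after 15 min with 500 uM ATP at 22 °C. The fluorescence ratio is summed target-cycle over summed buffer-cycle Cy3 intensity per cluster, averaged per switch-domain sequence, with clusters outside 100-1000 RFU excluded.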
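Further: ATP exposure 15 min at 22 °C before imaging.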

Row | Sequence | switch fluorescence ratio
1 | AGGGCAGGGA | 0.993 ± 0.017
2 | GGTTAGGGGG | 1 ± 0.052
3 | GTCAGAGGCA | 0.991 ± 0.011
4 | TAGGTTTAAT | 0.992 ± 0.036
5 | AGTGCATTCT | 0.995 ± 0.049
6 | GAAGTGATAT | 1.206 ± 0.0013
7 | CCGCCAGGGG | 3.42 ± 1.8
8 | AATATCTGAC | 1.18 ± 0.046
9 | TGCGCGAAAG | 0.98 ± 0.042
10 | CGACTAGGGG | 1.01 ± 0.024
11 | AGTTATCAGG | 1.06 ± 0.024
12 | TGTGTTCTAG | 1.005 ± 0.0046
13 | GGGAATGTT | 0.992 ± 0.022
14 | TTTTGGGCAG | 0.971 ± 0.013
15 | CCTAGCTG | 1.02 ± 0.056
16 | CGGTCAGGGA | 1.01 ± 0.037
17 | TAGCGGGGGC | 1.02 ± 0.05
18 | GTTGGGGCTG | 0.973 ± 0.14
19 | TAAGTTTGCA | 1.003 ± 0.0077
20 | TGTAGGAGGG | 0.993 ± 0.01
21 | AATGATTGAA | 0.968 ± 0.023
22 | AAAAACATTT | 0.998 ± 0.051
23 | AGAGCGTTCG | 0.998 ± 0.042

Row | Sequence | switch fluorescence ratio
24 | ATTCTGTTAG | 0.993 ± 0.0092
25 | GCGTAAGGGT | 0.985 ± 0.012
26 | TTTTCGATTA | 0.987 ± 0.016
27 | ACGTGTGGGA | 1.04 ± 0.02
28 | ATAATTCGGG | 1 ± 0.049
29 | AGCAGTTTAC | 1.17 ± 0.054
30 | TTGGTTTGCG | 0.962 ± 0.017
31 | TGGTGGCACG | 0.965 ± 0.011
32 | ATGTAGCATG | 1.036 ± 0.0041
33 | TAGTTTGTTT | 1.02 ± 0.074
34 | TTATTCAAAT | 1.02 ± 0.035
35 | GCAATGGGTG | 1.35 ± 0.027
36 | TAAAAGGATT | 0.989 ± 0.042
37 | CCGGGGAATG | 1.04 ± 0.052
38 | TAGCCAAGGG | 0.994 ± 0.053
39 | AGGGAGGATT | 0.965 ± 0.034
40 | TTCGGTTTTC | 0.984 ± 0.033
41 | CTGTTGACTG | 0.983 ± 0.041
42 | TTGCATTAGG | 1.28 ± 0.31
43 | AGGATAAAGG | 1.03 ± 0.036
44 | TTTTCCCTAT | 1.41 ± 0.71
45 | TTTTGATGAG | 0.987 ± 0.021
46 | TAATTCACCA | 1.18 ± 0.18

Row | Sequence | switch fluorescence ratio
47 | CTGGGGGGCT | 1.02 ± 0.021
48 | ACTGACCCCC | 1.58 ± 0.14
49 | CGAAGAGGTC | 1.02 ± 0.032
50 | TAGTGGGTTA | 0.974 ± 0.023
51 | CGTCTAAGGG | 1.06 ± 0.13
52 | CGTTGGTACG | 1 ± 0.022
53 | CAATTTGGGG | 0.994 ± 0.02
54 | TCTTGCATAA | 1.07 ± 0.076
55 | GGGGTGTTTG | 0.981 ± 0.022
56 | AAGGTGTGTT | 1.08 ± 0.068
57 | AGTAGAATCA | 1.01 ± 0.026
58 | GCTTATCGGT | 0.996 ± 0.018
59 | TACAAGGGCA | 1.01 ± 0.037
60 | TGAGTTAAGT | 0.997 ± 0.01
61 | CGGGAGGTTT | 0.9854 ± 0.0083
62 | TTTACTTGGG | 0.9767 ± 0.0077
63 | TCTCTGGATG | 1.02 ± 0.013
64 | AGGAGAATCT | 1 ± 0.025
65 | GTATTTGGGA | 0.991 ± 0.054
66 | ATTTTCCAGG | 1.49 ± 0.26
67 | GATATTATCA | 1.017 ± 0.0049
68 | AATTTTCAGA | 1.03 ± 0.019
69 | GACGGGGAAA | 1.01 ± 0.028

Row | Sequence | switch fluorescence ratio
70 | GATTTTACTT | 1.03 ± 0.015
71 | GGGAAGGGAG | 0.983 ± 0.028
72 | GGGGTTGGG | 1.015 ± 0.0031
73 | TTTGATATGT | 0.996 ± 0.039
74 | GTTTTCACAG | 0.992 ± 0.033
75 | GGTTGCGTCG | 1.01 ± 0.014
76 | GATCCTGAGG | 0.968 ± 0.077
77 | GTGGGGGTGG | 0.985 ± 0.015
78 | TATATGGTGG | 1.02 ± 0.056
79 | ATTAGTTAGC | 1.01 ± 0.05
80 | CATACGGGTA | 1.042 ± 0.00018
81 | ATAAAAGGGG | 1.001 ± 0.0097
82 | TTTTTCCTAT | 1.012 ± 0.0071
83 | TTTAAGGGGG | 1.15 ± 0.28
84 | TCTTTGGGCT | 1.1 ± 0.19
85 | AAGTATTTTT | 1.018 ± 0.0058
86 | GCTATGAGTA | 0.9832 ± 0.0097
87 | AGAAAGCCGG | 0.989 ± 0.014
88 | GTTAAAATTA | 1.01 ± 0.015
89 | ACGGGGAATG | 1.01 ± 0.056
90 | TAATTATTCT | 1.02 ± 0.014
91 | CCTCTTTTTT | 1.1 ± 0.035
92 | CTCCAGGGGA | 1.5 ± 0.49

Row | Sequence | switch fluorescence ratio
93 | ATGGTTTCGT | 0.996 ± 0.037
94 | AGCAAAACGT | 1.17 ± 0.19
95 | AGGGCAGGAC | 1.41 ± 0.024
96 | TGGGGCCCTT | 1.04 ± 0.02
97 | TATGCCTGTG | 1.01 ± 0.036
98 | CGACGGGTTT | 1.08 ± 0.035
99 | TTATTACCTA | 1.06 ± 0.049
100 | CGGTAGTCGA | 1.02 ± 0.052
101 | TCACAATTTA | 0.9774 ± 0.0044
102 | CGTGGGGTGT | 1.01 ± 0.039
103 | TGTTGTGGGG | 0.96 ± 0.025
104 | GGACACGGTA | 1.12 ± 0.029
105 | TTGCTAGCCT | 1.01 ± 0.021
106 | ATAATATTTG | 0.985 ± 0.015
107 | TTGGAAATTT | 1.05 ± 0.17
108 | TTTTCAAGAC | 1.31 ± 0.28
109 | GGGAAGTTGG | 0.986 ± 0.013
110 | TTATTGTAT | 0.988 ± 0.043
111 | GTTTGTTAGG | 1.012 ± 0.0095
112 | ATCATGCCTA | 0.989 ± 0.033
113 | GAAGTGTGTG | 1 ± 0.021
114 | GTATGCTTGG | 0.9959 ± 0.0042
115 | AAATTGATCC | 0.964 ± 0.016

Row | Sequence | switch fluorescence ratio
116 | TTGGGTGTAG | 1.04 ± 0.025
117 | GGTAGTAGGC | 1.014 ± 0.0019
118 | AGCAAAGTA | 0.9748 ± 0.0062
119 | AGAGTGGTCA | 0.988 ± 0.018
120 | CGGGGAACTT | 1.01 ± 0.019
121 | TGCTCCGTCG | 1.2 ± 0.039
122 | TATGTGAGGG | 0.988 ± 0.033
123 | AAACTTTTTC | 1.02 ± 0.065
124 | TTCCTGAGTT | 1.16 ± 0.21
125 | TATCGTGATG | 0.992 ± 0.039
126 | ACTAAAAAAA | 0.991 ± 0.025
127 | TTTTTTGGCC | 0.993 ± 0.036
128 | AGATCCATTT | 0.991 ± 0.055
129 | TAGTATGGCG | 1.04 ± 0.088
130 | AACCGCGTTG | 1.06 ± 0.012
131 | CAATAAATAG | 1.005 ± 0.006
132 | AAACGCCATT | 1.13 ± 0.018
133 | TTACCTGAAC | 2.02 ± 0.31
134 | ACGGGTCGGA | 1 ± 0.027
135 | GGGCAGTTCG | 1.02 ± 0.027
136 | AAAGAGCTAG | 1 ± 0.053
137 | CATCTAGTGC | 1.045 ± 0.0031
138 | AGTGCCGGCA | 1.02 ± 0.051

Row | Sequence | switch fluorescence ratio
139 | GGGTGTATGG | 0.981 ± 0.012
140 | GTTGTGGGTT | 0.976 ± 0.022
141 | GGTTCTGGGT | 1 ± 0.02
142 | TCTTTTACTG | 1.01 ± 0.033
143 | TGCATTGGGC | 1.03 ± 0.013
144 | ATCTGTCAAG | 0.9954 ± 0.0058
145 | GGGGAGAGGC | 1.08 ± 0.11
146 | GTATTGAAGT | 0.98469 ± 0.00015
147 | CATTAGAGGT | 0.995 ± 0.014
148 | TATGGAGACC | 0.9917 ± 0.0049
149 | TTTCGAGGGA | 1 ± 0.025
150 | CAAGCTTTTT | 0.979 ± 0.032
151 | AATTTTAACA | 1 ± 0.016
152 | CTTGGCGGGC | 1.01 ± 0.04
153 | GAAGGGGCTG | 1.01 ± 0.14
154 | ACTTTAGTTA | 0.9756 ± 0.0025
155 | AGGAAAGTAG | 0.9719 ± 0.0097
156 | AGGATATATT | 0.976 ± 0.0099
157 | TTATTGAAA | 1.023 ± 0.0033
